Results on one substance are retold here after EP0999853B1.

For the assay, the target named is recombinant preparation of soluble MAC-1 (UniProt P11215). Briefly: MAC-1 capture ELISA over total F(ab')2 ELISA; 5 weeks of storage, all formulations F1-F5. For orientation: An ELISA detects its analyte on a solid surface through an enzyme-linked reagent.

In the case of “recombinant humanized anti-CD18 antibody (rhuMAb CD18)”, the loss of specific activity at 40°C relative to -70°C lay in the range of 10 to 15%.
